± gives the uncertainty stated by the source.
B1: Zinc finger homeobox protein 4, residues 2562 to 2617; numbered along this chain, Q86UP3 (parent)
chain: RLRTTITPEQLEILYEKYLLDSNPTRKMLDHIAREVGLKKRVVQVWFQNTRARERK
B2: RAS guanyl-releasing protein 1, residues 539 to 593; numbered along this chain, O95267 (parent)
chain: GFPHNFQETTYLKPTFCDNCAGFLWGVIKQGYRCKDCGMNCHKQCKDLVVFECKK

Variants of: B1
Test: abundance fitness (aPCA) (normalised: wild type 0, dead -1); higher = more abundant; growth selection in yeast, the domain comes from the species named
Conditions: Homo sapiens

Abundance fitness of substitutions, site by site:
K56: S -0.043 ± 0.14, V -0.282 ± 0.37, G 0.184 ± 0.34, D 0.085 ± 0.34, I -0.305 ± 0.5, A -0.241 ± 0.46, T 0.267 ± 0.15, R -0.701 ± 0.26, E 0.273 ± 0.17, M -0.023 ± 0.3
R41: Y 0.037 ± 0.079
R53: P -0.373 ± 0.12, H 0.104 ± 0.081, S 0.168 ± 0.072, K 0.14 ± 0.1, N 0.052 ± 0.13, L 0.039 ± 0.064, I -0.156 ± 0.16, T 0.021 ± 0.1, Y -0.62 ± 0.28, E 0.394 ± 0.065, A -0.014 ± 0.07, V -0.03 ± 0.077, G 0.054 ± 0.072, W -0.315 ± 0.077, D 0.226 ± 0.14, Q 0.145 ± 0.1, M 0.077 ± 0.079, F 0.066 ± 0.1, C 0.045 ± 0.097
F47: G -0.913 ± 0.13, I -0.765 ± 0.2, P -0.885 ± 0.17, R -0.969 ± 0.077, L -0.74 ± 0.1, K -1 ± 0.27, A -0.983 ± 0.17, W 0.049 ± 0.079, N -0.905 ± 0.22, H -0.865 ± 0.44, Y -0.072 ± 0.11, Q -1.18 ± 0.34, D -0.46 ± 0.36, T -0.789 ± 0.11, V -0.974 ± 0.1, E -0.806 ± 0.07
V42: Y -0.598 ± 0.22, Q -0.038 ± 0.15, H -0.079 ± 0.13, M -0.103 ± 0.077, T -0.187 ± 0.12, D 0.23 ± 0.066, G -0.533 ± 0.067, C -0.179 ± 0.093, S -0.348 ± 0.059, E 0.273 ± 0.093, R -0.413 ± 0.068, L -0.126 ± 0.083, K -0.302 ± 0.07, A -0.197 ± 0.097
A52: P -0.693 ± 0.15, C -0.702 ± 0.24, H -0.172 ± 0.071, M -0.268 ± 0.11, F -0.498 ± 0.28, S -0.197 ± 0.099, L -0.226 ± 0.069, V -0.327 ± 0.05, D 0.384 ± 0.056, Y -0.781 ± 0.47, R -0.321 ± 0.071, T -0.372 ± 0.08, K -0.086 ± 0.13, W -0.347 ± 0.078, G -0.096 ± 0.054, N 0.189 ± 0.13, E 0.283 ± 0.077, Q -0.035 ± 0.064
Q48: F -0.389 ± 0.12, E 0.433 ± 0.07, G 0.178 ± 0.079, V -0.152 ± 0.071, I -0.693 ± 0.34, A 0.2 ± 0.093, S -0.049 ± 0.074, K -0.006 ± 0.098, N -0.216 ± 0.17, W -0.556 ± 0.12, R -0.166 ± 0.07, C -0.287 ± 0.091, P -1.02 ± 0.29, T 0.008 ± 0.065, H -0.139 ± 0.14, L -0.611 ± 0.12, Y -0.168 ± 0.13, D 0.392 ± 0.11, M -0.16 ± 0.084
N49: A 0.043 ± 0.08, L -0.25 ± 0.062, V -0.125 ± 0.074, K -0.489 ± 0.16, D -0.043 ± 0.1, H -0.423 ± 0.16, I 0.12 ± 0.12, Q -0.104 ± 0.09, W -0.422 ± 0.063, S -0.009 ± 0.072, Y -0.414 ± 0.17, E 0.253 ± 0.1, M 0.029 ± 0.13, G -0.182 ± 0.059, P -0.73 ± 0.23, C -0.282 ± 0.067, T -0.102 ± 0.12, R -0.477 ± 0.077
R55: K -0.035 ± 0.22, Y 0.05 ± 0.45, V 0.276 ± 0.083, L 0.128 ± 0.07, D 0.262 ± 0.082, G 0.11 ± 0.059, F -0.23 ± 0.15, N 0.297 ± 0.15, A 0.107 ± 0.083, H -0.086 ± 0.16, Q -0.078 ± 0.26, P 0.001 ± 0.11, M 0.128 ± 0.097, W -0.114 ± 0.076, S 0.09 ± 0.052, I 0.053 ± 0.1, C 0.063 ± 0.12
V43: K -0.965 ± 0.27, G -0.89 ± 0.085, D -0.778 ± 0.22, W -0.78 ± 0.089, R -0.974 ± 0.072, F -0.861 ± 0.28, S -0.723 ± 0.16, T -0.553 ± 0.079, A -0.462 ± 0.063, N -0.829 ± 0.4, E -0.925 ± 0.12, P -0.862 ± 0.24, I -0.147 ± 0.084, C -0.505 ± 0.12, L -0.306 ± 0.083
T50: Y -0.107 ± 0.21, M -0.094 ± 0.083, W -0.097 ± 0.086, L -0.137 ± 0.071, K 0.028 ± 0.072, N -0.127 ± 0.1, R 0.08 ± 0.056, S 0.06 ± 0.083, F -0.069 ± 0.096, C -0.345 ± 0.14, G -0.367 ± 0.064, V -0.068 ± 0.071, I -0.042 ± 0.1, E 0.265 ± 0.11, P -0.738 ± 0.077, A 0.041 ± 0.073, H -0.034 ± 0.12
E54: V -0.523 ± 0.063, W -0.307 ± 0.11, L -0.201 ± 0.056, C -0.811 ± 0.19, Y -0.715 ± 0.29, I -0.283 ± 0.34, D -0.122 ± 0.067, F 0.025 ± 0.17, Q -0.664 ± 0.25, R -0.615 ± 0.11, A -0.433 ± 0.059, H -0.672 ± 0.32, K -0.722 ± 0.36, G -0.362 ± 0.064, T -0.737 ± 0.17, P -0.545 ± 0.087, M -0.09 ± 0.14, S -0.254 ± 0.088
W46: K -1.03 ± 0.15, S -0.91 ± 0.11, I -0.939 ± 0.15, V -0.723 ± 0.061, P -0.802 ± 0.088, G -0.752 ± 0.066, E -0.549 ± 0.093, L -0.887 ± 0.14, H -0.878 ± 0.4, M -0.815 ± 0.15, Q -1.05 ± 0.25, D -0.536 ± 0.16, T -0.756 ± 0.27, C -0.663 ± 0.18
Q44: L -0.128 ± 0.06, I -0.28 ± 0.092, V -0.156 ± 0.062, H -0.101 ± 0.094, K -0.035 ± 0.094, R -0.191 ± 0.061, S -0.248 ± 0.075, T -0.053 ± 0.097, M -0.132 ± 0.09, G -0.031 ± 0.069, W -0.045 ± 0.094, Y 0.202 ± 0.13, D 0.322 ± 0.09, E 0.298 ± 0.056, N -0.131 ± 0.14, C 0.246 ± 0.11, A -0.011 ± 0.092, F -0.416 ± 0.21
V45: E 0.535 ± 0.098, K -0.249 ± 0.11, Q -0.568 ± 0.21, S -0.309 ± 0.1, W -0.439 ± 0.11, P -0.754 ± 0.2, D 0.192 ± 0.067, F -0.738 ± 0.2, G -0.198 ± 0.083, T -0.045 ± 0.075, C -0.352 ± 0.13, R -0.402 ± 0.069, A -0.243 ± 0.092, Y -0.036 ± 0.2, H -0.262 ± 0.27, N -0.384 ± 0.27, I -0.057 ± 0.14, L -0.111 ± 0.056
R51: F -0.08 ± 0.07, W 0.057 ± 0.078, P -1.05 ± 0.26, L 0.234 ± 0.086, E -0.15 ± 0.12, A 0.17 ± 0.053, Y -0.192 ± 0.1, I 0.134 ± 0.064, S 0.086 ± 0.067, C -0.267 ± 0.093, H 0.32 ± 0.092, T -0.242 ± 0.084, M -0.021 ± 0.067, N 0.156 ± 0.15, V 0.017 ± 0.076, K 0.039 ± 0.081, G -0.151 ± 0.068

Variants of: B2
Test: as above
Conditions: Homo sapiens

Abundance fitness, by site and new letter:
G1: R -0.187 ± 0.14, L -0.027 ± 0.11, S 0.218 ± 0.14, E 0.003 ± 0.1, W -0.46 ± 0.34, D 0.188 ± 0.13, M 0.477 ± 0.14, V -0.007 ± 0.11
P3: V 0.064 ± 0.076, I 0.209 ± 0.12, S 0.099 ± 0.1, A -0.047 ± 0.084, C 0.291 ± 0.12, D 0.677 ± 0.23, H 0.17 ± 0.058, L 0.007 ± 0.069, G 0.116 ± 0.075, T 0.06 ± 0.087, Y 0.394 ± 0.25, M 0.131 ± 0.12, K -0.171 ± 0.18, R -0.015 ± 0.078, N 0.227 ± 0.087, F 0.483 ± 0.25, E 0.357 ± 0.13, Q 0.14 ± 0.12
F6: L -0.138 ± 0.078, I -0.269 ± 0.25, H -0.319 ± 0.091, K -0.647 ± 0.17, E -0.551 ± 0.2, G -0.627 ± 0.093, D -0.788 ± 0.26, C -0.132 ± 0.12, A -0.267 ± 0.062, M -0.01 ± 0.14
H4: K -0.243 ± 0.11, L -1.07 ± 0.27, G -0.847 ± 0.082, A -0.878 ± 0.17, Y -0.716 ± 0.3, N -0.708 ± 0.1, S -0.92 ± 0.069, Q -0.804 ± 0.16, W -1.04 ± 0.12, E -0.628 ± 0.42, V -0.947 ± 0.078, P -0.915 ± 0.13, M -0.335 ± 0.12, D -0.595 ± 0.063
F2: M -0.051 ± 0.094, I 0.097 ± 0.06, H -0.048 ± 0.11, Y -0.019 ± 0.066, C -0.214 ± 0.11, W -0.523 ± 0.16, V -0.282 ± 0.075, R -0.118 ± 0.074, N 0.214 ± 0.093, T -0.15 ± 0.097, A -0.261 ± 0.095, K -0.108 ± 0.085, G -0.335 ± 0.068, D -0.086 ± 0.059, Q -0.282 ± 0.12, E -0.343 ± 0.1
N5: C -0.23 ± 0.079, M -0.018 ± 0.089, I -0.039 ± 0.082, V -0.218 ± 0.079, T -0.026 ± 0.085, Q -0.051 ± 0.093, W -0.14 ± 0.083, K -0.157 ± 0.11, R -0.169 ± 0.077, A -0.141 ± 0.077, S -0.066 ± 0.071, G -0.075 ± 0.054, Y -0.459 ± 0.21, P -0.403 ± 0.12, F -0.226 ± 0.19, L -0.026 ± 0.053, H 0.001 ± 0.092, E -0.098 ± 0.12, D -0.104 ± 0.17
